The target of assay [1] is T1, human transferrin receptor (Transferrin receptor protein 1 isoform 1, Homo sapiens, NCBI NP_003225.2) (Homo sapiens, UniProt P02786 1-760). Briefly: cell-based or functional assay.
In assay [2] the target is T1, human transferrin receptor (Transferrin …). Kind of assay: flow cytometry, biotinylated antibody on THP-1 and MEC-1 cells, streptavidin Alexa F488. As to the method:
Serial dilutions (5 to 0.05 ug/mL) of both biotinylated antibodies (antibody A24 and antibody of ADC INA01-SDV1) were performed and incubated on THP-1 and MEC-1 cell lines. The binding of the diluted antibodies was detected by Flow cytometry using streptavidin Alexa F488 (available at ThermoFisher scientific).

T1 sequence (P02786 whole entry, canonical isoform): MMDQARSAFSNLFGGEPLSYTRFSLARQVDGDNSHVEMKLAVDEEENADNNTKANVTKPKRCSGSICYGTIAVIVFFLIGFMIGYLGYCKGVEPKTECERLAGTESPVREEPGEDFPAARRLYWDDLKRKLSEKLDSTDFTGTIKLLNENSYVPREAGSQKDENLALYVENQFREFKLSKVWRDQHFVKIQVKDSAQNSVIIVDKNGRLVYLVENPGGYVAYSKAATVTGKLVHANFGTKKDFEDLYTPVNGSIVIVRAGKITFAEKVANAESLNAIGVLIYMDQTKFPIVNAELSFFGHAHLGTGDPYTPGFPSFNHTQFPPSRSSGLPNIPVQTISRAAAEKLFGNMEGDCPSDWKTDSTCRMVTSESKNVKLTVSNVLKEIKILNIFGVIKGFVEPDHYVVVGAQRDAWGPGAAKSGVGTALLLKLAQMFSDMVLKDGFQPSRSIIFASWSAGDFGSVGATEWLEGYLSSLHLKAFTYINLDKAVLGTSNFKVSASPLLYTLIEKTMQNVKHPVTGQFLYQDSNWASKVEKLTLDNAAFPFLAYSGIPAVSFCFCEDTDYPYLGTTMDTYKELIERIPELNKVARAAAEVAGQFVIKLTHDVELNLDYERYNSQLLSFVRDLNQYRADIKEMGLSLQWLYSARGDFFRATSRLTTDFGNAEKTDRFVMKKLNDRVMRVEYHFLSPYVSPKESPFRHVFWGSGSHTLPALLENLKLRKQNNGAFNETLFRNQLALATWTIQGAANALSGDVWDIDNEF

B1: INA01-SDV1 (antibody, human IgG4 S228P, kappa, V domains shown)
VH: QVQLVQSGPELKKPGASVKVSCKASGYTFTNQGMNWVKQAPGKGLKWMGWINTYTGEPINADDFKGRFVISLDTSASTAYLQISSLKAEDTAVYFCVREGWDSMDYWGQGTSVTVSS
VL: QIVLTQSPATLSVSPGERATLSCSASSSVNYMHWFQQKPGQSPRLLIYSTSNRATGIPARFSGSGSGTSYTLTISSLEPEDFAVYYCQQRSSYPLTFGQGTKLEIKR
modifications: linker APN (formula IV)-valine-citrulline-para-aminobenzyl ester-MMAE attached through the cysteine residues (thiols); biotinylated in Example 1
For B1, the “IC50 of cell proliferation of HL-60 acute myeloid leukemia cell line” value in assay [1] amounted to 0.08 µg/mL.

B2: A24 (antibody, V domains shown)
VH: QIQLVQSGPELKKPGETVKISCKASGYTFTNQGMNWVKQAPGKGLKWMGWINTYTGEPINADDFKGRFAISLETSASTAYLQINNLKNEDMATYFCVREGWDSMDYWGQGTSVTVSS
VL: QIVLTQSPAIMSASPGEKVTITCSASSSVNYMHWFQQKPGTSPKLWIYSTSNLASGVPARFSGSGSGTSYSLTISRMEAEDAATYYCQQRSSYPLTFGAGTKLELKR
modifications: biotinylated in Example 1
notes: Mouse monoclonal IgG (IgG2kappa) as disclosed in WO 2005/111082; also called antibody A24; murine A24 antibody
In the case of B2, the binding result in assay [2] was “binds”.

The values above are taken from patent publication US20210138083A1 (INATHERYS, published 2021).
